# Patent US9156883B2, “Binding molecules for human factor VIII and factor VIII-like proteins” (DYAX CORP., priority 1999, dated 2015)
# No end group written: not given here.
# Biological target: T1, REFACTO® (factor VIII-like polypeptide, amino acids 1-743 and 1638 through 2332 of human factor VIII) (Homo sapiens, UniProt P00451)
# T1 construct: amino acids 1-743 and 1638 through 2332 of human factor VIII; purchased Genetics Institute, Inc. (Cambridge, Mass.)
# T1 sequence (P00451 20-762): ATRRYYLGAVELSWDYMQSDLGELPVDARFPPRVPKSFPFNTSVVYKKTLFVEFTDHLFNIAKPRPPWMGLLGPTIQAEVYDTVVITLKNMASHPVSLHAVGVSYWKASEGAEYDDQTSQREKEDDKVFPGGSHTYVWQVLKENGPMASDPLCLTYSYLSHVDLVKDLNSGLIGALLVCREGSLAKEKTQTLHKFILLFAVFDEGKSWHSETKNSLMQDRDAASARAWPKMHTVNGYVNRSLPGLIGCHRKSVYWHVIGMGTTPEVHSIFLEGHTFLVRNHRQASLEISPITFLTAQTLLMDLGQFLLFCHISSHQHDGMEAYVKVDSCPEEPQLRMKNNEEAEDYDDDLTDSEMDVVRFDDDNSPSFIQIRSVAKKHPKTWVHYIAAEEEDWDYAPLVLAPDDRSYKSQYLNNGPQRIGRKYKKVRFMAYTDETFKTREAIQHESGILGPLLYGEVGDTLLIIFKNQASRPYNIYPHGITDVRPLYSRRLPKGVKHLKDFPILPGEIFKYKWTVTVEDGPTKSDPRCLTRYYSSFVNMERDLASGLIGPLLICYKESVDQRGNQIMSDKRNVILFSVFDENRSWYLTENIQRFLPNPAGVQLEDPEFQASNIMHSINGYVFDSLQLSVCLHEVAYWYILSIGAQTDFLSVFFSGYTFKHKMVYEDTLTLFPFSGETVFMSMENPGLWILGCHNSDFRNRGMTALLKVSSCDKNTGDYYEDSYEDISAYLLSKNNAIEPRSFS
# T1 sequence (P00451 1657-2351): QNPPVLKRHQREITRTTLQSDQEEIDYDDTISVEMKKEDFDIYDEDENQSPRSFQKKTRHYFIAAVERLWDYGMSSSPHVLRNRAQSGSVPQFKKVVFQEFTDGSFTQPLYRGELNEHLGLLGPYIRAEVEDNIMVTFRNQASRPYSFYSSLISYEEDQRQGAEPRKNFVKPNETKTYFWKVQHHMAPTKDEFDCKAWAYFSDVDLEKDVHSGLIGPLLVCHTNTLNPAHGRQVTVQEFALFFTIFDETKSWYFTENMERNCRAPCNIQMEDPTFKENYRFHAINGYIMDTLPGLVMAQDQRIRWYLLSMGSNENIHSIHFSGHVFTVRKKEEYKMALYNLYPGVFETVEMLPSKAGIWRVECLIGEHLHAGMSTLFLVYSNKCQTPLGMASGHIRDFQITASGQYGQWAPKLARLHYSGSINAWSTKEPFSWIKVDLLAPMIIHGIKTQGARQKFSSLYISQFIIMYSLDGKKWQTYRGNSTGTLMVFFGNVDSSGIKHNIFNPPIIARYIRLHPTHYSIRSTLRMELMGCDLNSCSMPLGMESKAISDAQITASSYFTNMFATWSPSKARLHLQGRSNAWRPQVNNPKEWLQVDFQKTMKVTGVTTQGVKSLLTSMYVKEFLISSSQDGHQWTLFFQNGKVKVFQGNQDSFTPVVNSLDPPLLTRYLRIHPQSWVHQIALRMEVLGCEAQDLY
# Assay: Phage ELISA of third-round isolates for binding to the factor VIII target
# Conditions: TN7 library phage isolates; HRP anti-M13, TMB, absorbance at OD630
# Text: The techniques described above were employed to isolate high affinity binding molecules for ligands for recombinantly produced factor VIII-like polypeptide consisting of two segments of human factor VIII, i.e., amino acids 1-743 and 1638 through 2332 of human factor VIII, as described in U.S. Pat. No. 5,661,008 (Almstedt et al.), obtained under the commercial designation of REFACTO® from Genetics Institute, Inc. (Cambridge, Mass.). The REFACTO® target was provided at a concentration of about 530 μg/ml (7800 IU/ml) in 19.4 mM His, 300 mM NaCl, 3.4 mM CaCl2 and 0.1% Tween 80, pH 7.0.
# Three libraries, designated TN7 (5×10^9 amino acid sequence diversity), TN8 (6×10^9 amino acid sequence diversity), and TN9 (5×10^9 amino acid sequence diversity), were constructed for expression of diversified polypeptides on M13 phage. Each library was screened for binders to purified REFACTO®. Each of the libraries was constructed to display a microprotein based on an 11- or 12-amino acid template. The TN7 library utilized a template sequence of Xaa-Xaa-Cys-Xaa-Xaa-Xaa-Xaa-Xaa-Cys-Xaa-Xaa; the TN8 library utilized a template sequence of Xaa-Xaa-Cys-Xaa-Xaa-Xaa-Xaa-Xaa-Xaa-Cys-Xaa-Xaa; the TN9 library utilized a template sequence of Xaa-Cys-Xaa-Xaa-Xaa-Xaa-Xaa-Xaa-Xaa-Cys-Xaa.
# (§1) Three rounds of screenings were carried out for each library. At the conclusion of the third round of screening eluted phage were propagated, and individual isolates from each library (96 per elution condition) were selected randomly and tested by standard ELISA techniques for binding to the factor VIII target. Bound phage were detected with HRP conjugated anti-M13 polyclonal antibody (Pharmacia). TMB Peroxidase substrate was used for HRP in the ELISA detection mechanism. TMB substrate produces a blue color after peroxidase digestion. The color is quantitated by absorbance at OD630. Phage isolates that provided a significant signal (OD630>0.25) above background were considered positive clones.
# Sequence data from the phage isolates were grouped by library and sorted according to the degree of similarity. The frequency at which any given sequence was obtained was noted since this indicates selection for a specific binder.
row,Substance,ELISA signal
1,C5/G10 (RLCSWVSPCSA; Selected Phage Display Sequence),0.5
2,A06 (HSCGSWLFPCFA; Selected Phage Display Sequence),0.5
3,D04 (RLCSWISPCSA; Selected Phage Display Sequence),0.3
4,A08 (FGCSWLFPCPF; Selected Phage Display Sequence),0.4
5,D03 (PHCNWLFPCSL; Selected Phage Display Sequence),0.2
6,A09 (FHCIGVWFCLH; Selected Phage Display Sequence),0.1

# Same assay, conditions: TN8 library phage isolates; HRP anti-M13, TMB, absorbance at OD630
row,Substance,ELISA signal
1,08 (HPCGAWLRPCYN; Selected Phage Display Sequence) [compound 08],1.0
2,07 (HACGSWFRPCHA; Selected Phage Display Sequence) [compound 07],0.4
3,10 (HPCGSWLRPCLH; Selected Phage Display Sequence) [compound 10],1.0
4,11/G10 (HRCGSWLHPCLA; Selected Phage Display Sequence),0.3
5,05 (RGCGSWLRPCLD; Selected Phage Display Sequence) [compound 05],0.2

# Same assay, conditions: TN9 library phage isolates; HRP anti-M13, TMB, absorbance at OD630
row,Substance,ELISA signal
1,09 (FCWVFPFQHCA; Selected Phage Display Sequence) [compound 09],1.1
2,03 (FCWVFNFSHCS; Selected Phage Display Sequence) [compound 03],1.1
3,06 (FCWVFPFHHCF; Selected Phage Display Sequence) [compound 06],0.3
4,11 (FCHVFPFLHCD; Selected Phage Display Sequence) [compound 11],0.2

# Biological target: T2, factor VIII target (Homo sapiens, UniProt P00451)
# T2 construct: amino acids 1-743 and 1638 through 2332 of human factor VIII; purchased Genetics Institute, Inc. (Cambridge, Mass.)
# T2 sequence (P00451 20-762): T1 sequence (P00451 20-762)
# T2 sequence (P00451 1657-2351): T1 sequence (P00451 1657-2351)
# Assay: Phage ELISA of high scoring isolates from rounds 2 and 3, with versus without target
# Assay type: binding
# Conditions: phage isolates from rounds 2 and 3
# Experimental: During analysis of the specific polypeptides of the invention, three libraries were isolated and screened. […] These libraries were designated TN7/1, TN8/6 anf TN9/1. In addition, important consensus sequences were determined.
# as §1, with “clones. […]” for “clones.”
row,Substance,"R, ratio of the ELISA score with target present to the ELISA score without target"
1,FCHVFNFVHCS (cysteine pairing not given here) [TN9 isolate 01],8
2,FCWVFNFSHCS (cysteine pairing not given here) [TN9 isolate 03],24
3,HSCGSWLFPCFA (cysteine pairing not given here) [TN7 isolate A06],10
4,FCWVFQFRHCH (Selected Phage Display Sequence) [Phe-Cys-Trp-Val-Phe-Q-Phe-Arg-His-Cys-His],8
5,HLCGAWFRPCDA (cysteine pairing not given here) [TN8 isolate 02],6
6,FCWVFPFNHCD (cysteine pairing not given here) [TN9 isolate 02],8
7,HPCGSWLHPCAA (cysteine pairing not given here) [TN8 isolate 04],6
8,HPCGAWLRPCYN (cysteine pairing not given here) [TN8 isolate 08],20
9,FCWVFPFQHCA (cysteine pairing not given here) [TN9 isolate 09],24
10,HLCFAWFRPCDA (cysteine pairing not given here) [TN8 isolate 12],8
11,RLCSWVSPCSA (cysteine pairing not given here) [TN7 isolate C5/G10],10
12,FGCSWLFPCPF (cysteine pairing not given here) [TN7 isolate A08],8
13,FCWVFPFNHCS (cysteine pairing not given here) [TN9 isolate 12],18
14,FCWVFAFDHCH (Selected Phage Display Sequence) [Phe-Cys-Trp-Val-Phe-Ala-Phe-Asp-His-Cys-His],24
15,HPCGSWFRPCFH (cysteine pairing not given here) [TN8 isolate 02],16
16,HRCGSWLHPCLA (cysteine pairing not given here) [TN8 isolate 11/G10],6
17,RLCSWISPCSA (cysteine pairing not given here) [TN7 isolate D04],6
18,HPCGSWFNPCAH (cysteine pairing not given here) [TN8 isolate 02],8
19,FCWVFNWVHCD (Selected Phage Display Sequence) [Phe-Cys-Trp-Val-Phe-Asn-Trp-Val-His-Cys-Asp],14
20,HPCGSWLRPCLH (cysteine pairing not given here) [TN8 isolate 10],16
21,HACGSWFRPCHA (cysteine pairing not given here) [TN8 isolate 07],6
22,FCWVFPFHHCF (cysteine pairing not given here) [TN9 isolate 06],6
